Key:
Test in all cases: cell-based or functional assay
[1] = biological target: SARS-CoV-2 S蛋白, 突变株 B.1.617.2 (SARS-CoV-2)
[2] = biological target: SARS-CoV-2 S蛋白, 突变株 B.1.525 (SARS-CoV-2)
SARS-CoV-2 S蛋白, 突变株 P.1 = SARS-CoV-2 S蛋白, 突变株 P.1 (SARS-CoV-2)
[3] = biological target: SARS-CoV-2 S蛋白, 突变株 B.1.351 (SARS-CoV-2)
[4] = biological target: SARS-CoV-2 S蛋白, 突变株 B.1.1.7 (SARS-CoV-2)

B1: 抗SARS-CoV-2全人源化单克隆抗体1B3 (antibody, V domains shown)
VH: VQLVESGGGVVQPGRSLRLSCAASGFTFSSYAMHWVRQAPGKGLEWVAVISYDGSNKYYADSVKGRFTISRDNSKNTLYLQMNSLRAEDTAVYYCAKVAGGPYYYDSSGRDWYFDLWGRGTLVTVSA
VL: DIQMTQSPSSLSASVGDRVSITCRASQSISSFLNWFQQKPGKAPNLLIYAASSLESGVPSRFSGSGSGTDFTLTISSLQPEDFATYYCQQSYSAPPTFGQGTRLEIKR
Which results are given for B1?
EC50, 假病毒细胞模型中和活性 (luciferase, ACE2-293T细胞) [1]: 1.69 µg/mL; EC50, 假病毒细胞模型中和活性 (luciferase, ACE2-293T细胞) [2]: 1.7 µg/mL; EC50, 假病毒细胞模型中和活性 (luciferase, ACE2-293T细胞) (SARS-CoV-2 S蛋白, 突变株 P.1): 3.83 µg/mL; EC50, 假病毒细胞模型中和活性 (luciferase, ACE2-293T细胞) [3]: 2.05 µg/mL; EC50, 假病毒细胞模型中和活性 (luciferase, ACE2-293T细胞) [4]: 2.51 µg/mL
